Each block holds one binder with its values, some of them ahead of it.
Columns and labels:
Assay in all cases: two-hybrid library CCNG1;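 also: natural log of median RNA to DNA barcode read ratio; higher means stronger binding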
4H683-bA = target: T1, 4H683-bA
T1 chain: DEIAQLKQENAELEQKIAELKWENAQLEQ

4H968-bA = target: T2, 4H968-bA
T2 chain: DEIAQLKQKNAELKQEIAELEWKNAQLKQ

4H780-bA = target: T3, 4H780-bA
T3 chain: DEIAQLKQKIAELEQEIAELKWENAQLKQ

4H346-bA = target: T4, 4H346-bA
T4 chain: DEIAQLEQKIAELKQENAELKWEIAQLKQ

4H3427-bA = target: T5, 4H3427-bA
T5 chain: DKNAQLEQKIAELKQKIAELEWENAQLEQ

4H953-bA = target: T6, 4H953-bA
T6 chain: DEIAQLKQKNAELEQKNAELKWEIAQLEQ

4H4073-bA = target: T7, 4H4073-bA
T7 chain: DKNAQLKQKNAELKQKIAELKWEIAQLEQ

4H797-bA = target: T8, 4H797-bA
T8 chain: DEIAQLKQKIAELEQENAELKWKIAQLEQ

4H3112-bA = target: T9, 4H3112-bA
T9 chain: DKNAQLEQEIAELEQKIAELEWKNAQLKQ

4H918-bA = target: T10, 4H918-bA
T10 chain: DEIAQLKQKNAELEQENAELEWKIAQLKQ

4H3926-bA = target: T11, 4H3926-bA
T11 chain: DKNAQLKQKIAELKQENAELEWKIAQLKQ

4H855-bA = target: T12, 4H855-bA
T12 chain: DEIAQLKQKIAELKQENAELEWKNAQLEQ

4H754-bA = target: T13, 4H754-bA
T13 chain: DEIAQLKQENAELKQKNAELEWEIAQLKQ

4H575-bA = target: T14, 4H575-bA
T14 chain: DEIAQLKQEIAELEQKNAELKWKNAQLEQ

4H457-bA = target: T15, 4H457-bA
T15 chain: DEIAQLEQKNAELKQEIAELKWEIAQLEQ

4H3010-bA = target: T16, 4H3010-bA
T16 chain: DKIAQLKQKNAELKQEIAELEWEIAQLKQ

P9mSN = target: T17, P9mSN
T17 chain: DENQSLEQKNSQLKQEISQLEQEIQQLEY

4H967-bN = target: T18, 4H967-bN
T18 chain: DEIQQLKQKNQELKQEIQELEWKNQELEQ

4H797-bN = target: T19, 4H797-bN
T19 chain: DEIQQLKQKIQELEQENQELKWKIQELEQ

4H72-bN = target: T20, 4H72-bN
T20 chain: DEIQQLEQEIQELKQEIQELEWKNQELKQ

4H953-bN = target: T21, 4H953-bN
T21 chain: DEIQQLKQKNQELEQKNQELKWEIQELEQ

4H370-bN = target: T22, 4H370-bN
T22 chain: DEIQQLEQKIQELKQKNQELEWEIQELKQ

4H687-bN = target: T23, 4H687-bN
T23 chain: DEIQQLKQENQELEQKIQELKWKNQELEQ

4H3782-bN = target: T24, 4H3782-bN
T24 chain: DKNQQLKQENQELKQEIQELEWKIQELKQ

4H918-bN = target: T25, 4H918-bN
T25 chain: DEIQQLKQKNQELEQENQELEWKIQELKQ

4H607-bN = target: T26, 4H607-bN
T26 chain: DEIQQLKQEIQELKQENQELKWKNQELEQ

4H3843-bN = target: T27, 4H3843-bN
T27 chain: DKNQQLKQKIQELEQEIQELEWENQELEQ

4H568-bN = target: T28, 4H568-bN
T28 chain: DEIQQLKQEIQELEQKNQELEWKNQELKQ

4H4001-bN = target: T29, 4H4001-bN
T29 chain: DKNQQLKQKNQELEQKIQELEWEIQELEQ

4H462-bN = target: T30, 4H462-bN
T30 chain: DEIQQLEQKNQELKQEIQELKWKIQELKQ

4H3606-bN = target: T31, 4H3606-bN; conditions: mean of both orientations
T31 chain: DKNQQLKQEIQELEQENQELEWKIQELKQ

4H883-bN = target: T32, 4H883-bN
T32 chain: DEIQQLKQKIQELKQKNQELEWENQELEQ

- interaction score (4H683-bA): 0.693
- interaction score (4H968-bA): -0.854
- interaction score (4H780-bA): -1.79
- interaction score (4H346-bA): -0.9
- interaction score (4H3427-bA): 0.296
- interaction score (4H953-bA): 0.368
- interaction score (4H4073-bA): 0.722
- interaction score (4H797-bA): -0.928
- interaction score (4H3112-bA): -0.267
- interaction score (4H918-bA): -0.579
- interaction score (4H3926-bA): 1.35
- interaction score (4H855-bA): -1.32
- interaction score (4H754-bA): -0.693
- interaction score (4H575-bA): -0.532
- interaction score (4H457-bA): 1.48
- interaction score (4H3010-bA): 0.824
Binder: DKIAQLKQKNAELKQEIAELEWEIAQLKQ [4H3010-bA]

- interaction score (P9mSN): -1.56
Binder: DENQSLEQKNSQLKQEISQLEQEIQQLEY [P9mSN]

- interaction score (4H967-bN): -1.43
- interaction score (4H797-bN): -0.386
- interaction score (4H72-bN): -0.312
- interaction score (4H953-bN): -0.614
- interaction score (4H370-bN): -0.0845
- interaction score (4H687-bN): 0.128
- interaction score (4H3782-bN): -0.77
- interaction score (4H918-bN): -0.149
- interaction score (4H607-bN): 0.0432
- interaction score (4H3843-bN): -0.0433
- interaction score (4H568-bN): 1.07
- interaction score (4H4001-bN): -0.219
- interaction score (4H462-bN): -0.288
- interaction score (4H3606-bN): -0.385
- interaction score (4H883-bN): -1.5
Binder: DKNQQLKQEIQELEQENQELEWKIQELKQ [4H3606-bN]
